B1: CDN27 (antibody, V domains shown)
VH: EVQLQQSGPELVKPGASVKISCKASGYSFTGYFMNWVKQSHGKSLEWIGRINPYNGDTFYNQKFKGKATLTVDKSSSTAHMELRSLTSEDSAVYYCARSGDWYFDVWGAGTTVTVSS
VL: DIVLTQSPASLAVSLGQRATISCRASKSVSTSSYSYMHWYQQKPGQPPKLLIKFASYLESGVPARFSGSGSGTDFTLNIHPVEEEDAATYYCQHSREFPRTFGGGTKLEIKR
notes: mouse monoclonal, IgG2a/IgK
B2: CDN28 (antibody, mouse IgG1, kappa, V domains shown)
VH: EVQLQQSGPELVKPGASVKISCKASGYSFTGYFMNWVKQSHGKSLEWLGRINPYNGDTFYNQKFKGKATLTVDKSSNTAHMELRSLTSEDSAVYYCARGDGYYVTSLAYWGQGTLVTVSA
VL: NIVMTQSPKSMSMSVGERVTLSCKASENVVSYVSWFQQKPEQSPKLLIYGASNRYTGVPDRFTGSGSATDFTLTISSVQAEDLADYYCGQSYSYPLTFGAGTKLELKR
notes: mouse monoclonal, IgG1/IgK
B3: CDN35 (antibody, V domains shown)
VH: EVQLQQSGPELVKPGASVKMSCKASGYTFTDYYMNWVKQSHGKSLEWIGRVNPSNGGTSYNQKFKGKATLTVDKSLSTAYMQLNSLTSEDSAVYYCARGLAYYSNSFTYWGQGTLVTVSA
VL: KIVLTQSPASLAVSLRQRATISCRASESVDSYGNSFMHWYQQKPGQPPKLLIYRASNLESGVPARFSGSGSRTDFTLTIDPVEADDAATYYCQQNNEDPWTFGGGTKLEIKR
notes: mouse monoclonal, IgG2a/IgK
B4: CDN38 (antibody, V domains shown)
VH: EVQLQQSGPELVKPGASVKMSCKASGYSFTGYFMNWVKQSHGKSLEWIGRINPYNGDTFYNQKFKGKATLTVDKSSSTAHMELRSLTSEDSALYYCARSGNYVMDYWGQGTSVTVSS
VL: DIVLTQSPASLAVSLGQSVTISCRASESVEYYGTSLMQWYQQKPGQPPKLLIYGASNVESGVPARFSGSGSGTDFSLNIHPVEEDDIAMYFCQQSRKVPWTFGGGTKLEIKR
B5: CDN04 (antibody, mouse IgG1, kappa, V domains shown)
VH: EVQLQQSGPELVKPGASMKISCKASGYSFTGYTMNWMKQGHGKNLEWIGLINPYNGGTSYNQKFKDKATLTLDKSSSSAYMELLSLTSEDSAVYYCARGSYGSSYFDYWGQGTTLTVSS
VL: DIVMSQSPSSLAVSVGEKVTMSCKSSQSLLYGSNQKNYLAWYQQKPGQSPKLLIYWASTRESGVPDRFTGSGSGTDFTLTISSVKAEDLAVYYCQQYYNFPYTFGGGTKLEIKR
notes: mouse monoclonal, IgG1/IgK; also called CDN4
B6: CDN16 (antibody, mouse IgG2b, kappa, V domains shown)
VH: EVQLQQSGPELVKPGASVKMSCKASGYTFTDYYMNWVKQSHGKSLEWIGRVNPSNGGTSYNQKFKGKATLTVDKSLSTAYMQLNSLTSEDSAVYYCARGLAYYSNSFVYWGQGTLVTVSA
VL: KIVLTQSPASLAVSLRQRATISCRASESVDSYGNSFMHWYQQKPGQPPKLLIYRASNLESGVPARFSGSGSRTDFTLTIDPVEADDAATYYCQQNNEDPWTFGGGTKLEIKR
notes: mouse monoclonal, IgG2b/IgK

What was measured:
human Claudin 3 [1] = molecular target: T1, human Claudin 3 (human, UniProt O15551 1-220); test: flow cytometry, hCLDN3/Ba/F3 cells, 2 ug/mL antibody
T1 construct: forced expression in DG44 or Ba/F3 cells, or endogenous on MCF7 cells; four-transmembrane tight junction protein; also called hCLDN3; hCLN3
T1 sequence: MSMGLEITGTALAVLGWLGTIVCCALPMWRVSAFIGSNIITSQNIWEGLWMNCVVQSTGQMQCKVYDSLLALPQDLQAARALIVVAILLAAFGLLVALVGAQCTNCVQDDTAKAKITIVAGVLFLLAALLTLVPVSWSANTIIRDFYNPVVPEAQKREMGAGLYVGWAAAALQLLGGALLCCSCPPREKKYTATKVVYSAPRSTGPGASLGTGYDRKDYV
Description: (§1) A monoclonal antibody was added to the respective forced expression cells, and then incubated at 4° C. for 30 minutes. After incubation, the cells were washed once with a PBS solution containing 1% fetal bovine serum, then a 150-fold dilution of an FITC-goat anti-mouse IgG (H+L) antibody (Beckman Coulter) was added, and this was incubated at 4° C. for 30 minutes. The amount of antibodies bound per cell was measured using FACSCalibur, and the X geometric mean value, which is the geometric mean of the cell fluorescence intensity, was calculated using the accessory CellQuest Pro analysis software of FACSCalibur.
(§2) The cross reactivity for human Claudin 3, human Claudin 1, human Claudin 4, human Claudin 6, and mouse Claudin 3 forcedly expressed in Ba/F3 was evaluated using at a final antibody concentration of 2 μg/mL.

[2] = molecular target: T2, human Claudin 4 with C-terminal FLAG tag (human, UniProt O14493 1-209); test: flow cytometry, hCLDN4/Ba/F3 cells, 2 ug/mL antibody
T2 construct: whole, on cells; forced expression in Ba/F3 cells; also called hCLDN4; hCLN4
T2 sequence (looked up): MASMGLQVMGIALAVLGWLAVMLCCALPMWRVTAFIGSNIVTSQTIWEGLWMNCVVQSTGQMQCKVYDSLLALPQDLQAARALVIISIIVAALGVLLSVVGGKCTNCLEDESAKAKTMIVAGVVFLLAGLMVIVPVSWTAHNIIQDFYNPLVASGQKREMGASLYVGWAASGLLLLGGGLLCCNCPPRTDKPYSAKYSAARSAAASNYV
Description: as §1, §2

human Claudin 3 [3] = molecular target: T1, human Claudin 3; test: flow cytometry, hCLDN3/DG44 cells, 1 ug/mL antibody
mouse Claudin 3 = molecular target: T3, mouse Claudin 3 (mouse, UniProt Q9Z0G9 1-219); test: flow cytometry, mCLDN3/Ba/F3 cells, 2 ug/mL antibody
T3 construct: whole, on cells; also called mCLDN3; mCLN3
T3 sequence (looked up): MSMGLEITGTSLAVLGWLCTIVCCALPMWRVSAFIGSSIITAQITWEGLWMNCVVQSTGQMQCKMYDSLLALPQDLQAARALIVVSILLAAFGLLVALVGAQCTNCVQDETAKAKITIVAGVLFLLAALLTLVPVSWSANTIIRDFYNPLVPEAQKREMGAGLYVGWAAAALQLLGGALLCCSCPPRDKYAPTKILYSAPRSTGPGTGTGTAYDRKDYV
Description: as §1, §2

[4] = molecular target: T4, human Claudin 6 with C-terminal FLAG tag (human, UniProt P56747 1-220); test: flow cytometry, hCLDN6/Ba/F3 cells, 2 ug/mL antibody
T4 construct: whole, on cells; forced expression in Ba/F3 cells; also called hCLDN6; hCLN6
T4 sequence (looked up): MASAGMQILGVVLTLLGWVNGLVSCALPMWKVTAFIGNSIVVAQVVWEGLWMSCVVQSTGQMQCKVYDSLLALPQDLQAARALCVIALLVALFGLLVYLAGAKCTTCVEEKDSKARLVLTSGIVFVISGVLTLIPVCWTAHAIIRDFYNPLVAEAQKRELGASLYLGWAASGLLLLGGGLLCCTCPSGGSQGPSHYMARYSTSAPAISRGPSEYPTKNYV
Description: as §1, §2

human Claudin 3 [5] = molecular target: T1, human Claudin 3; test: flow cytometry, hCLDN3/DG44 cells, 5 ug/mL antibody
human Claudin 3 [6] = molecular target: T1, human Claudin 3; test: flow cytometry, hCLDN3/DG44 cells, 0.1 ug/mL antibody
human Claudin 3 [7] = molecular target: T1, human Claudin 3; test: flow cytometry, MCF7 cells (endogenous Claudin 3), 1 ug/mL antibody
Description: as §1
(§3) The affinity of the antibodies to the MCF7 breast cancer cell line (ATCC, HTB-22), which endogenously expresses Claudin 3, was evaluated by the flow cytometry method.

human Claudin 3 [8] = molecular target: T1, human Claudin 3; test: flow cytometry, MCF7 cells (endogenous Claudin 3), 5 ug/mL antibody
Description: as §1, §3

[9] = molecular target: T5, human Claudin 1 with C-terminal FLAG tag (human, UniProt O95832 1-211); test: flow cytometry, hCLDN1/Ba/F3 cells, 2 ug/mL antibody
T5 construct: whole, on cells; forced expression in Ba/F3 cells; also called hCLDN1; hCLN1
T5 sequence (looked up): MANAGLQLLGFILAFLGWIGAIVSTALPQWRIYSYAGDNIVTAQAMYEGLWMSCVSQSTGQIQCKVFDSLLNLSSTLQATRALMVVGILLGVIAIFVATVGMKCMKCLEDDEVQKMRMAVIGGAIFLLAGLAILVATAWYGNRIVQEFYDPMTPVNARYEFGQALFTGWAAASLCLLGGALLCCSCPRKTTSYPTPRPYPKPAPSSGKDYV
Description: as §1, §2

Row | Binder | X geometric mean (human Claudin 3 [1]) | X geometric mean [2] | X geometric mean (human Claudin 3 [3]) | X geometric mean (mouse Claudin 3) | X geometric mean [4] | X geometric mean (human Claudin 3 [5]) | X geometric mean (human Claudin 3 [6]) | X geometric mean (human Claudin 3 [7]) | X geometric mean (human Claudin 3 [8]) | X geometric mean [9]
1 | B1 | 3340 | 302 | 1790 | 50 | 25 | 2700 | 308 | 202 | 310 | 42
2 | B2 | 1430 | 27 | 1450 |  | 9 | 1990 | 275 | 175 | 186 | 12
3 | B3 | 2150 | 59 | 869 | 1310 | 36 | 2300 | 120 | 176 | 380 | 
4 | B4 | 142 | 74 | 215 | 115 | 9 | 258 | 207 | 63 | 61 | 7
5 | B5 | 366 | 14 | 180 | 16 | 9 | 667 | 28 | 47 | 130 | 11
6 | B6 | 1980 | 11 | 928 | 1270 | 9 | 2480 | 125 | 125 | 361 | 
